Experimental data published in publication doi:10.1101/2024.09.04.610023 (bioRxiv, 2024).

T1: Purified human GST-PABPN1 (human, UniProt Q86U42-1 1-306)
T1 sequence (looked up): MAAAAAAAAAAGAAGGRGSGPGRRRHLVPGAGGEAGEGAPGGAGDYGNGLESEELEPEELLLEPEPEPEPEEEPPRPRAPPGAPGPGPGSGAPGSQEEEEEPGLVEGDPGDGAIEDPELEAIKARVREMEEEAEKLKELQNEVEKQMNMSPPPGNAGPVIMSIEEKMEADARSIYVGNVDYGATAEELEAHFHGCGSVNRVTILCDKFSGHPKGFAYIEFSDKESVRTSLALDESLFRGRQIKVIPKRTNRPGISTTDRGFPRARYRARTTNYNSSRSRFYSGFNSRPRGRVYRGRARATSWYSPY


Target: T1, Purified human GST-PABPN1
Assay: peptide or protein array

| binding result | Binder |
| --- | --- |
| binds | TQIFEDPREFLSHL (peptide, UniProt Q63053 211-224, looked up) [Arc array peptide 211-224] |
| binds | QPKFKRFLRHPLPK (peptide, UniProt Q63053 330-343, looked up) [Arc array peptide 330-343] |
| binds | LWRKRDLYQTLYVD (peptide, UniProt Q63053 302-315, looked up) [Arc array peptide 302-315] |
